{"source": "patent US20090111753A1", "about": "“Nogo-A Polypeptide Fragments, Variant Nogo Receptor-1 Polypeptides, and Uses Thereof” (Yale University, priority 2004, published 2009)", "key": {"[1]": {"target": "T1, AP fusion protein with the B4C fragment of Amino-Nogo-A fused directly to Nogo-66 (human, UniProt Q9NQC3 1055-1120)", "T1 construct": "domain: Nogo-66; also called AP-B4C66; AP-B4C-66; not shown: alkaline phosphatase (AP), vector pcAP6", "T1 sequence": "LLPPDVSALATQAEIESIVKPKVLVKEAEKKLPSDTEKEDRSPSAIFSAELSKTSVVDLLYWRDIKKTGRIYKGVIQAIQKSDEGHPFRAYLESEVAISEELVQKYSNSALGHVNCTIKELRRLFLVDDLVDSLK", "assay": "AP-ligand binding, COS-7"}, "AP-Nogo-66": {"target": "T2, AP-Nogo-66 (UniProt Q9NQC3 1055-1120)", "T2 construct": "domain: Nogo-66; construct described elsewhere (Fournier 2001); also called AP-Ng66; Ng66; not shown: alkaline phosphatase (AP); construct described elsewhere", "T2 sequence (looked up)": "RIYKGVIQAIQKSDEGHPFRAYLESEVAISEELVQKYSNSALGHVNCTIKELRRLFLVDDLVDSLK", "assay": "AP-ligand binding, COS-7"}, "[2]": {"target": "T3, AP-fused Amino-Nogo fragment B4C (a.a. 950-1018) (human, UniProt Q9NQC3 950-1018)", "T3 construct": "also called AmNg B4C; AP-B4C; not shown: alkaline phosphatase (AP), vector pcAP6", "T3 sequence": "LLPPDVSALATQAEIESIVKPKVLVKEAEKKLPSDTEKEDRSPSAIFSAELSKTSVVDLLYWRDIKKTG", "assay": "AP-ligand binding, COS-7"}, "NgR ligands": {"system": "NgR ligands", "assay": "Binding of alanine substituted NgR mutants to NgR ligands, summary categories", "details": "AP-Nogo66, AP-B4C, AP-B4C66, AP-Lingo-1, AP-OMgp and AP-MAG; compared to wild type NgR", "outline": "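Human NgR1 template; 74 mutants with 1-8 solvent-exposed charged surface residues (within 5 Å) Ala-substituted, plus glycosylation-site mutants and D259N polymorphism. Mutants tested for binding of AP-tagged Nogo66, Amino-Nogo-B4C, B4C66, MAG, OMgp and Lingo-1; each classed as losing all, keeping all, or selective ligand binding.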"}}, "data": [{"molecule": "human NgR1 alanine mutant 95, 97, 188, 189, 191, 192 (receptor) CPGACVCYNEPKVTTSCPQQGLQAVPVGIPAASQRIFLHGNRISHVPAASFRACRNLTILWLHSNVLAAIAAAAFTGLALLEQLDLSDNAQLRSVDPATFHGLGRLHTLHLDRCGLQELGPGLFRGLAALQYLYLQDNALQALPDDTFRDLGNLTHLFLHGAAIAAVPERAFRGLHSLDRLLLHQNRVAHVHPHAFRDLGRLMTLYLFANNLSALPTEALAPLRALQYLRLNDNPWVCDCRARPLWAWLQKFRGSSSEVPCSLPQRLAGRDLKRLAANDLQGCAVATGPYHPIWTGRATDEEPLGLPKCCQPDAADKASVLEPGRPASAGNALKGRVPPGDSPPGNGSGPRHINDSPFGTLPGSAEPPLTAVRPEGSEPPGFPTSGPRRRPGCSRKNRTRSHCRLGQAGSGGGGTGDSEGSGALPSLTCSLTPLGLALVLWTVLGPC", "values": [{"measurement": "binding result", "setting": "[1]", "result": "no binding"}, {"measurement": "binding result", "setting": "AP-Nogo-66", "result": "no binding"}, {"measurement": "binding result", "setting": "[2]", "result": "no binding"}, {"measurement": "ligand binding category of NgR mutant (Table II)", "setting": "NgR ligands", "result": "No binding"}]}, {"molecule": "human NgR1 alanine mutant 67, 68, 71 (receptor) CPGACVCYNEPKVTTSCPQQGLQAVPVGIPAASQRIFLHGAAISAVPAASFRACRNLTILWLHSNVLARIDAAAFTGLALLEQLDLSDNAQLRSVDPATFHGLGRLHTLHLDRCGLQELGPGLFRGLAALQYLYLQDNALQALPDDTFRDLGNLTHLFLHGNRISSVPERAFRGLHSLDRLLLHQNRVAHVHPHAFRDLGRLMTLYLFANNLSALPTEALAPLRALQYLRLNDNPWVCDCRARPLWAWLQKFRGSSSEVPCSLPQRLAGRDLKRLAANDLQGCAVATGPYHPIWTGRATDEEPLGLPKCCQPDAADKASVLEPGRPASAGNALKGRVPPGDSPPGNGSGPRHINDSPFGTLPGSAEPPLTAVRPEGSEPPGFPTSGPRRRPGCSRKNRTRSHCRLGQAGSGGGGTGDSEGSGALPSLTCSLTPLGLALVLWTVLGPC", "values": [{"measurement": "binding result", "setting": "[1]", "result": "no binding"}, {"measurement": "binding result", "setting": "AP-Nogo-66", "result": "no binding"}, {"measurement": "binding result", "setting": "[2]", "result": "no binding"}, {"measurement": "ligand binding category of NgR mutant (Table II)", "setting": "NgR ligands", "result": "No binding"}]}, {"molecule": "human NgR1 alanine mutant 210, 232, 234 (receptor) CPGACVCYNEPKVTTSCPQQGLQAVPVGIPAASQRIFLHGNRISHVPAASFRACRNLTILWLHSNVLARIDAAAFTGLALLEQLDLSDNAQLRSVDPATFHGLGRLHTLHLDRCGLQELGPGLFRGLAALQYLYLQDNALQALPDDTFRDLGNLTHLFLHGNRISSVPERAFRGLHSLDRLLLAQNRVAHVHPHAFRDLGRLMTLALAANNLSALPTEALAPLRALQYLRLNDNPWVCDCRARPLWAWLQKFRGSSSEVPCSLPQRLAGRDLKRLAANDLQGCAVATGPYHPIWTGRATDEEPLGLPKCCQPDAADKASVLEPGRPASAGNALKGRVPPGDSPPGNGSGPRHINDSPFGTLPGSAEPPLTAVRPEGSEPPGFPTSGPRRRPGCSRKNRTRSHCRLGQAGSGGGGTGDSEGSGALPSLTCSLTPLGLALVLWTVLGPC", "values": [{"measurement": "binding result", "setting": "[1]", "result": "no binding"}, {"measurement": "binding result", "setting": "AP-Nogo-66", "result": "no binding"}, {"measurement": "binding result", "setting": "[2]", "result": "no binding"}, {"measurement": "ligand binding category of NgR mutant (Table II)", "setting": "NgR ligands", "result": "No binding"}]}, {"molecule": "human NgR1 alanine mutant 111, 113, 114 (receptor) CPGACVCYNEPKVTTSCPQQGLQAVPVGIPAASQRIFLHGNRISHVPAASFRACRNLTILWLHSNVLARIDAAAFTGLALLEQLALAANAQLRSVDPATFHGLGRLHTLHLDRCGLQELGPGLFRGLAALQYLYLQDNALQALPDDTFRDLGNLTHLFLHGNRISSVPERAFRGLHSLDRLLLHQNRVAHVHPHAFRDLGRLMTLYLFANNLSALPTEALAPLRALQYLRLNDNPWVCDCRARPLWAWLQKFRGSSSEVPCSLPQRLAGRDLKRLAANDLQGCAVATGPYHPIWTGRATDEEPLGLPKCCQPDAADKASVLEPGRPASAGNALKGRVPPGDSPPGNGSGPRHINDSPFGTLPGSAEPPLTAVRPEGSEPPGFPTSGPRRRPGCSRKNRTRSHCRLGQAGSGGGGTGDSEGSGALPSLTCSLTPLGLALVLWTVLGPC", "values": [{"measurement": "binding result", "setting": "[1]", "result": "no binding"}, {"measurement": "binding result", "setting": "AP-Nogo-66", "result": "no binding"}, {"measurement": "binding result", "setting": "[2]", "result": "no binding"}, {"measurement": "ligand binding category of NgR mutant (Table II)", "setting": "NgR ligands", "result": "No binding"}]}, {"molecule": "human NgR1 alanine mutant 95, 97, 117, 119, 120, 188, 189 (receptor) CPGACVCYNEPKVTTSCPQQGLQAVPVGIPAASQRIFLHGNRISHVPAASFRACRNLTILWLHSNVLAAIAAAAFTGLALLEQLDLSDNAALAAVDPATFHGLGRLHTLHLDRCGLQELGPGLFRGLAALQYLYLQDNALQALPDDTFRDLGNLTHLFLHGAAISSVPERAFRGLHSLDRLLLHQNRVAHVHPHAFRDLGRLMTLYLFANNLSALPTEALAPLRALQYLRLNDNPWVCDCRARPLWAWLQKFRGSSSEVPCSLPQRLAGRDLKRLAANDLQGCAVATGPYHPIWTGRATDEEPLGLPKCCQPDAADKASVLEPGRPASAGNALKGRVPPGDSPPGNGSGPRHINDSPFGTLPGSAEPPLTAVRPEGSEPPGFPTSGPRRRPGCSRKNRTRSHCRLGQAGSGGGGTGDSEGSGALPSLTCSLTPLGLALVLWTVLGPC", "values": [{"measurement": "binding result", "setting": "[1]", "result": "no binding"}, {"measurement": "binding result", "setting": "AP-Nogo-66", "result": "no binding"}, {"measurement": "binding result", "setting": "[2]", "result": "no binding"}, {"measurement": "ligand binding category of NgR mutant (Table II)", "setting": "NgR ligands", "result": "No binding"}]}, {"molecule": "human NgR1 alanine mutant 182, 186, 210 (receptor) CPGACVCYNEPKVTTSCPQQGLQAVPVGIPAASQRIFLHGNRISHVPAASFRACRNLTILWLHSNVLARIDAAAFTGLALLEQLDLSDNAQLRSVDPATFHGLGRLHTLHLDRCGLQELGPGLFRGLAALQYLYLQDNALQALPDDTFRDLGNLTALFLAGNRISSVPERAFRGLHSLDRLLLAQNRVAHVHPHAFRDLGRLMTLYLFANNLSALPTEALAPLRALQYLRLNDNPWVCDCRARPLWAWLQKFRGSSSEVPCSLPQRLAGRDLKRLAANDLQGCAVATGPYHPIWTGRATDEEPLGLPKCCQPDAADKASVLEPGRPASAGNALKGRVPPGDSPPGNGSGPRHINDSPFGTLPGSAEPPLTAVRPEGSEPPGFPTSGPRRRPGCSRKNRTRSHCRLGQAGSGGGGTGDSEGSGALPSLTCSLTPLGLALVLWTVLGPC", "values": [{"measurement": "binding result", "setting": "[1]", "result": "no binding"}, {"measurement": "binding result", "setting": "AP-Nogo-66", "result": "no binding"}, {"measurement": "binding result", "setting": "[2]", "result": "no binding"}, {"measurement": "ligand binding category of NgR mutant (Table II)", "setting": "NgR ligands", "result": "No binding"}]}, {"molecule": "human NgR1 alanine mutant 114, 117, 163 (receptor) CPGACVCYNEPKVTTSCPQQGLQAVPVGIPAASQRIFLHGNRISHVPAASFRACRNLTILWLHSNVLARIDAAAFTGLALLEQLDLSANAALRSVDPATFHGLGRLHTLHLDRCGLQELGPGLFRGLAALQYLYLQANALQALPDDTFRDLGNLTHLFLHGNRISSVPERAFRGLHSLDRLLLHQNRVAHVHPHAFRDLGRLMTLYLFANNLSALPTEALAPLRALQYLRLNDNPWVCDCRARPLWAWLQKFRGSSSEVPCSLPQRLAGRDLKRLAANDLQGCAVATGPYHPIWTGRATDEEPLGLPKCCQPDAADKASVLEPGRPASAGNALKGRVPPGDSPPGNGSGPRHINDSPFGTLPGSAEPPLTAVRPEGSEPPGFPTSGPRRRPGCSRKNRTRSHCRLGQAGSGGGGTGDSEGSGALPSLTCSLTPLGLALVLWTVLGPC", "values": [{"measurement": "binding result", "setting": "[1]", "result": "no binding"}, {"measurement": "binding result", "setting": "AP-Nogo-66", "result": "no binding"}, {"measurement": "binding result", "setting": "[2]", "result": "no binding"}, {"measurement": "ligand binding category of NgR mutant (Table II)", "setting": "NgR ligands", "result": "No binding"}]}, {"molecule": "human NgR1 alanine mutant 67, 68, 95, 97 (receptor) CPGACVCYNEPKVTTSCPQQGLQAVPVGIPAASQRIFLHGAAISHVPAASFRACRNLTILWLHSNVLAAIAAAAFTGLALLEQLDLSDNAQLRSVDPATFHGLGRLHTLHLDRCGLQELGPGLFRGLAALQYLYLQDNALQALPDDTFRDLGNLTHLFLHGNRISSVPERAFRGLHSLDRLLLHQNRVAHVHPHAFRDLGRLMTLYLFANNLSALPTEALAPLRALQYLRLNDNPWVCDCRARPLWAWLQKFRGSSSEVPCSLPQRLAGRDLKRLAANDLQGCAVATGPYHPIWTGRATDEEPLGLPKCCQPDAADKASVLEPGRPASAGNALKGRVPPGDSPPGNGSGPRHINDSPFGTLPGSAEPPLTAVRPEGSEPPGFPTSGPRRRPGCSRKNRTRSHCRLGQAGSGGGGTGDSEGSGALPSLTCSLTPLGLALVLWTVLGPC", "values": [{"measurement": "binding result", "setting": "[1]", "result": "no binding"}, {"measurement": "binding result", "setting": "AP-Nogo-66", "result": "no binding"}, {"measurement": "binding result", "setting": "[2]", "result": "no binding"}, {"measurement": "ligand binding category of NgR mutant (Table II)", "setting": "NgR ligands", "result": "No binding"}]}]}
